Laboratory results: article PMC8484351, “Preclinical development of a bispecific TNFα/IL-23 neutralising domain antibody as a novel oral treatment for inflammatory bowel disease” (Scientific Reports, 2021)

T1: Recombinant cynomolgus monkey IL-23 (cynomolgus monkey)
T1 construct: IL-23p19 subunit of cynomolgus monkey IL-23; IL-12p40 subunit of cynomolgus monkey IL-23; also called cIL-23; IL-23 from cynomolgus monkey; source: bought: Fusion Antibodies (custom preparation)
T1 chain 1: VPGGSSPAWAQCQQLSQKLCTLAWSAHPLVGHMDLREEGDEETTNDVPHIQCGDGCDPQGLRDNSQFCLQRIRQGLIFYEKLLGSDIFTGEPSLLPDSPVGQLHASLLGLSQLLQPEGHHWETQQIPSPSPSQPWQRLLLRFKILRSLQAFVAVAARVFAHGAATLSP
T1 chain 2: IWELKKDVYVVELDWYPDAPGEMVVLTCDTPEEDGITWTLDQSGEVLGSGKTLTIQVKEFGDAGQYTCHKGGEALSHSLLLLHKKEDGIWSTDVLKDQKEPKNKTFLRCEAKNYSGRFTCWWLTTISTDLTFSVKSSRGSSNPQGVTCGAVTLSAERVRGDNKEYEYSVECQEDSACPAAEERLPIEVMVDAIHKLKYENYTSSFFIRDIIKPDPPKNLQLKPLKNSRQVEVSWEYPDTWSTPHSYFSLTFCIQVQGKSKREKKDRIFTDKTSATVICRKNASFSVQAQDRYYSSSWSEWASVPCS

T2: Recombinant Human IL-23 (human, UniProt Q9NPF7 20-189; P29460 23-328)
T2 construct: IL-23p19 subunit of human IL-23; IL-12p40 subunit, shared with IL-12; Heterodimer of p19 and p40; also called interleukin-23; source: bought: Sino Biologicals
T2 sequence (looked up) 1: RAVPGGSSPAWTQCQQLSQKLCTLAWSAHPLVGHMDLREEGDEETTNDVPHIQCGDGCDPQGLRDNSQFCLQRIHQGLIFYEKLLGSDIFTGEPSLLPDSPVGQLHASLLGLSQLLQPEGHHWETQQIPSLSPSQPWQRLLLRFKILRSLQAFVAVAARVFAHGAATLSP
T2 sequence (looked up) 2: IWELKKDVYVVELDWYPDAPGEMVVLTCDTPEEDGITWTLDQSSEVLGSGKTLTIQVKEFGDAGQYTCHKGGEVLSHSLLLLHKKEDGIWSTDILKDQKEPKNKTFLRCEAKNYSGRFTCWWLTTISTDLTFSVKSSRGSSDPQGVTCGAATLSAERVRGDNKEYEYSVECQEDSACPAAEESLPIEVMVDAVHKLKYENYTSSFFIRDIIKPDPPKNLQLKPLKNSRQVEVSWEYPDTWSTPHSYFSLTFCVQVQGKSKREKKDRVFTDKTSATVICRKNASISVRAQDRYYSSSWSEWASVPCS

B1: single domain antibody 12G1, unoptimised anti-IL-23 domain antibody (VHH)
VHH: EVQLVESGGGLVQPGGSLRLSCAASVSIWSFKVMGWYRQVPGKQRELVATITTGGSPDYADSVKGRFTMSRDYDKRTVFLEMDSVKPEDAAVYYCNGRLWAHLTSSGHDVWGQGTRVTVSS
notes: llama-derived, isolated by phage display after immunisation with human IL-23; Parent of V900; also called clone 12G1; not shown: His6, C-terminal, kept; FLAG, C-terminal, kept
B2: Vorabody V900, anti-IL-23 p19-specific single domain antibody (VHH)
VHH: DVQLVESGGGQVQPGGSLSLSCESSVSIWSFKVMGWFRQVPGKQRELVATITTGGSPDYSDSVKGRFTISRDYDKRTLYLQMNSLKPEDTAVYYCAGRLWAHITSSGHDVWGQGTQVTVSS
notes: 121 amino acids, 13.2 kDa; also called anti-IL-23 (V900); source: S. cerevisiae or Pichia pastoris shake flask cultures, purified (CaptoS ion exchange chromatography)
B3: Recombinant Human IL-23R-FC (Fc fusion, UniProt Q5VWK5 24-355, looked up)
chain: GITNINCSGHIWVEPATIFKMGMNISIYCQAAIKNCQPRKLHFYKNGIKERFQITRINKTTARLWYKNFLEPHASMYCTAECPKHFQETLICGKDISSGYPPDIPDEVTCVIYEYSGNMTCTWNAGKLTYIDTKYVVHVKSLETEEEQQYLTSSYINISTDSLQGGKKYLVWVQAANALGMEESKQLQIHLDDIVIPSAAVISRAETINATVPKTIIYWDSQTTIEKVSCEMRYKATTNQTWNVKEFDTNFTYVQQSEFYLEPNIKYVFQVRCQETGKRYWQPWSSLFFHKTPETVPQVTSKAFQHDTWNSGLTVASISTGHLTSDNRGDIG
notes: source: bought: R&D systems

Key:
Recombinant Human IL-23 [1] = molecular target: T3, Recombinant Human IL-23 (human, UniProt Q9NPF7;P29460); assay: cell-based or functional assay
Recombinant Human IL-23 [2] = molecular target: T3, Recombinant Human IL-23; assay: ELISA; human IL-23/IL-23R receptor/ligand inhibition ELISA; block buffer 1% BSA in PBS pH 7.4 with 4% Marvel milk; 0.1 mM PMSF added for trypsin-treated V56B2; protocol in the Supplementary Methods; conditions: both partners purified
[3] = molecular target: T1, Recombinant cynomolgus monkey IL-23; assay: ELISA; cynomolgus monkey IL-23/IL-23R receptor/ligand inhibition ELISA; protocol in the Supplementary Methods; conditions: both partners purified
Recombinant Human IL-23 [4] = molecular target: T3, Recombinant Human IL-23; assay: SPR; Biacore; anti-p40 monoclonal antibody coupled to a CM5 chip and loaded with recombinant human IL-23 at 2 or 0.5 ug/mL; V900 at 0.02, 0.08, 0.3, 1.25 and 5 nM, 300 s on and 300 s off, 30 uL/min; conditions: both partners purified
Recombinant Human IL-23 [5] = molecular target: T2, Recombinant Human IL-23; assay: ELISA; human IL-23/IL-23R receptor/ligand inhibition ELISA; block buffer 1% BSA in PBS pH 7.4 with 4% Marvel milk; 0.1 mM PMSF added for trypsin-treated V56B2; protocol in the Supplementary Methods; conditions: both partners purified

Row | Binder | IC50 of inhibition of IL-17 production from murine splenocytes co-stimulated with murine IL-2 and human IL-23 (cellular potency in mouse splenocytes) (Recombinant Human IL-23 [1]) | IC50 (Recombinant Human IL-23 [2]) | IC50 [3] | Kd (Recombinant Human IL-23 [4]) | binding result (Recombinant Human IL-23 [5])
1 | B1 | 9.3 nM | 0.2 nM |  |  | 
2 | B2 | 10.7 nM | 0.2 nM | 0.7 nM | 0.032 nM | 
3 | B3 |  |  |  |  | binds
